Test results published in patent publication US20210130436A1.
One block for each substance: values may come before it.

What was measured:
[1] = target: CD28, endogenously expressed on Jurkat/IL2 reporter cells (human) (UniProt P10747); experiment: flow cytometry, Jurkat/IL2 reporter cells (endogenous CD28), PE anti-human Fc
[2] = target: human CTLA4 (huCTLA4), full-length, stably expressed on CHO cells (human) (UniProt P16410); experiment: flow cytometry, CHO cells expressing huCTLA4
[3] = target: CD28, endogenously expressed on Jurkat/IL2 reporter cells (human) (UniProt P10747); experiment: flow cytometry, Jurkat/IL2 reporter cells (endogenous CD28)
[4] = target: human CTLA4, full-length, expressed on transfected HEK293 (Expi293F) cells (human) (UniProt P16410); experiment: flow cytometry, Fc fusion on HEK293 cells transfected with full-length human CTLA4
Chain of human CTLA4, full-length, expressed on transfected HEK293 (Expi293F) cells (human) (P16410 36-223): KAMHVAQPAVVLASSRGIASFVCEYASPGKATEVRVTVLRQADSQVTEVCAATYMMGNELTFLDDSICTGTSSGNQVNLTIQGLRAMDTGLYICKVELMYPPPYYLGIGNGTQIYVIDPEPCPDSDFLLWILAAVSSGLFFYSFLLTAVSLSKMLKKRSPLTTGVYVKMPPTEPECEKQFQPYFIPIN

[5] = target: human CD28, full length, expressed on transfected HEK293 cells (human) (UniProt P10747); experiment: flow cytometry, HEK293 cells transfected with human CD28
[6] = target: human CTLA4 (full-length, expressed on CHO cells) (human) (UniProt P16410); experiment: flow cytometry, CHO cells expressing huCTLA4, PE anti-human Fc
Chain of human CTLA4 (full-length, expressed on CHO cells) (human) (P16410 36-223): as above

[7] = target: CD28, endogenously expressed on Jurkat/IL2 reporter cells (human) (UniProt P10747); experiment: flow cytometry on Jurkat/IL2 reporter cells (endogenous CD28); PE anti-human Fc
[8] = target: human PD-L1, full length, expressed on transfected HEK293 cells (human) (UniProt Q9NZQ7); experiment: flow cytometry, HEK293 cells transfected with human PD-L1
[9] = target: human PD-L1 on CHO cells (human) (UniProt Q9NZQ7); experiment: cell-based or functional assay
[10] = target: CD112R (UniProt Q6DKI7); experiment: flow cytometry on CD112R-expressing cells
Chain of CD112R (Q6DKI7 41-326 limits assumed): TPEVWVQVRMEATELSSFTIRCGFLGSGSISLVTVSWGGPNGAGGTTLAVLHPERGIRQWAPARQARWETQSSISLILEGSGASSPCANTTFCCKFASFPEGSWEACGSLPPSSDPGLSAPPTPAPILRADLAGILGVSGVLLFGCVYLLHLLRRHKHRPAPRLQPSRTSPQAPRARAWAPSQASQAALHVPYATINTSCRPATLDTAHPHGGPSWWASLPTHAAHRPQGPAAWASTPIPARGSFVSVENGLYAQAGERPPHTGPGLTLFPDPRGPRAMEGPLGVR

[11] = target: PD-1 expressed on cells (Homo sapiens (Human)) (UniProt Q15116); experiment: flow cytometry; 20 nM Fc fusion on cells expressing PD-1
Chain of PD-1 expressed on cells (Homo sapiens (Human)) (Q15116 21-288): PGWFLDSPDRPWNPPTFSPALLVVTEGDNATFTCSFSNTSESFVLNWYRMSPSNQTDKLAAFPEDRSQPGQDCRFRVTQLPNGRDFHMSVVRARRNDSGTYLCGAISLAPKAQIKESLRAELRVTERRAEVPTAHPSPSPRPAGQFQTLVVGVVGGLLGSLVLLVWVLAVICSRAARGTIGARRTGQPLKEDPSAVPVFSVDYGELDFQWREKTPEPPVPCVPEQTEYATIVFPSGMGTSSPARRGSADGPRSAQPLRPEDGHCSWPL

[12] = target: PD-L1 (human) (UniProt Q9NZQ7); experiment: flow cytometry on CHO cells stably expressing PD-L1
[13] = target: PD-L1 (human) (UniProt Q9NZQ7); experiment: cell-based or functional assay

Chain of human CTLA4 (huCTLA4), full-length, stably expressed on CHO cells (human) (P16410 36-223): as the sequence (P16410 36-223) above

Substance: variant CD80 IgV-Fc H18L/V22A/E35D/M47L/N48T/L85Q (from UniProt P33681 35-141) (Fc fusion)
- MFI at 33.3 nM [1]: 434 MFI

Substance: variant CD80 IgV-Fc N55I/T57I/I69F (from UniProt P33681 35-141) (Fc fusion)
- MFI at 66.6 nM [5]: 1900 MFI

Substance: variant CD80 IgV-Fc Q33K/E35D/D46V/L85Q (from UniProt P33681 35-141) (Fc fusion)
- MFI at 33.3 nM [6]: 8510 MFI

Substance: variant CD80 IgV-Fc Q33L/E35D/M43I/Y53F/T62S/L85Q (from UniProt P33681 35-141) (Fc fusion)
- MFI at 33.3 nM [7]: 1024 MFI

Substance: variant CD80 IgV-Fc Q33L/E35D/M47V/T62S/V68M/L85M (from UniProt P33681 35-141) (Fc fusion)
- MFI at 33.3 nM [3]: 15 MFI

Substance: variant CD80 IgV-Fc Q33L/E35D/T41S/M47V (from UniProt P33681 35-141) (Fc fusion)
- MFI at 33.3 nM [6]: 14500 MFI

Substance: variant CD80 IgV-Fc R29C/E35D/M47L/V68M/A71G/L85M (from UniProt P33681 35-141) (Fc fusion)
- MFI at 33.3 nM [3]: 16 MFI

Substance: variant CD80 IgV-Fc V22L/E35D/M43L/A71G/D76H (from UniProt P33681 35-141) (Fc fusion)
- MFI at 66.6 nM [5]: 1500 MFI
- MFI at 22.2 nM [8]: 1850 MFI

Substance: variant CD80 IgV-Fc Y31H/E35D/T41S/V68L/K93R/R94W (from UniProt P33681 35-141) (Fc fusion)
- MFI at 66.6 nM [5]: 2450 MFI

Substance: variant CD80 IgV-Fc deltaE10-A98 (Fc fusion)
- Fold Increase over WT CD80-IgV-Fc [9]: 0.3 fold
- Jurkat/IL2 + CHO/OKT3/PD-L1 Reporter Assay: Relative Luciferase Units (RLU), CD80-Fc Conc 5.0 nM [9]: 137 RLU

Substance: variant CD112 IgV-Fc R12W/A46T/K66M/Q79R/N106I/T113A/S118F (from UniProt Q92692 32-158) (Fc fusion)
- MFI at 100 nM [10]: 1660 MFI

Substance: variant PD-L1 G15A/I36T/V129D/R195G Fc fusion (from UniProt Q9NZQ7 19-238)
- MFI at 20 nM [11]: 125 MFI

Substance: wild-type CD80 ECD-Fc (inert), Example 15 (from UniProt P33681 35-242) (Fc fusion)
- MFI at 33.3 nM [12]: 161 MFI
- RLU, Jurkat/IL2 + CHO/OKT3/PD-L1 Reporter Assay, CD80 Conc 5.0 nM [13]: 159 RLU

Results, then the substance that gave them:

- MFI at 33.3 nM [2]: 139 MFI
- MFI at 33.3 nM [3]: 16.7 MFI
Substance: variant CD80 IgV-Fc H18Y/E35D/M38I/M47L/V68M/L85M (from UniProt P33681 35-141) (Fc fusion)

- MFI at 66.6 nM [4]: 11900 MFI
Substance: variant CD80 IgV-Fc K36R/G78A (from UniProt P33681 35-141) (Fc fusion)

- MFI at 33.3 nM [3]: 15 MFI
Substance: variant CD80 IgV-Fc Q27L/Q33L/E35D/T41S/M47V/N48K/V68M/L85M (from UniProt P33681 35-141) (Fc fusion)

- MFI at 33.3 nM [6]: 15900 MFI
Substance: variant CD80 IgV-Fc Q33L/E35D/M47I (from UniProt P33681 35-141) (Fc fusion)

- MFI at 33.3 nM [1]: 433 MFI
Substance: variant CD80 IgV-Fc Q33L/E35D/T41S/M43I (from UniProt P33681 35-141) (Fc fusion)

- MFI at 33.3 nM [3]: 15 MFI
Substance: variant CD80 IgV-Fc Q33R/E35D/M38I/M47L/V68M (from UniProt P33681 35-141) (Fc fusion)
